Key:
4H2696-bN = target: T1, 4H2696-bN; assay: two-hybrid library CCNG1;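 note: natural log of median RNA to DNA barcode read ratio; higher means stronger binding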
T1 chain: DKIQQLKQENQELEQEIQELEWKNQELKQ

4H2883-bN = target: T2, 4H2883-bN; assay: two-hybrid library CCNG1;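 note: natural log of median RNA to DNA barcode read ratio; higher means stronger binding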
T2 chain: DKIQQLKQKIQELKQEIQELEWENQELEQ

4H2937-bN = target: T3, 4H2937-bN; assay: two-hybrid library CCNG1;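 note: natural log of median RNA to DNA barcode read ratio; higher means stronger binding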
T3 chain: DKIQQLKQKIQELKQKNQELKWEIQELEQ

4H2944-bN = target: T4, 4H2944-bN; assay: two-hybrid library CCNG1;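 note: natural log of median RNA to DNA barcode read ratio; higher means stronger binding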
T4 chain: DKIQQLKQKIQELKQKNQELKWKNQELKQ

4H342-bN = target: T5, 4H342-bN; assay: two-hybrid library CCNG1;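 note: natural log of median RNA to DNA barcode read ratio; higher means stronger binding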
T5 chain: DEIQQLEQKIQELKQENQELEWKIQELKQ

4H48-bN = target: T6, 4H48-bN; assay: two-hybrid library CCNG1;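 note: natural log of median RNA to DNA barcode read ratio; higher means stronger binding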
T6 chain: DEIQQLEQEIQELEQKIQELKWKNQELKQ

4H491-bN = target: T7, 4H491-bN; assay: two-hybrid library CCNG1
T7 chain: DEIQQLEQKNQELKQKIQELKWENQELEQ

P2-AA-1HGe-A = target: T8, P2-AA-1HGe-A; assay: two-hybrid library CCmax; details: mean of both orientations
T8 chain: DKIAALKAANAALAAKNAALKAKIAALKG

P2-AA-1HGe-D = target: T9, P2-AA-1HGe-D; assay: two-hybrid library CCmax; details: mean of both orientations
T9 chain: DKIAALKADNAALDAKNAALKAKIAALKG

P2-AA-1HGe-M = target: T10, P2-AA-1HGe-M; assay: two-hybrid library CCmax; details: mean of both orientations
T10 chain: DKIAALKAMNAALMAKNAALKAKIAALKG

P2-AA-1HGe-Q = target: T11, P2-AA-1HGe-Q; assay: two-hybrid library CCmax; details: mean of both orientations
T11 chain: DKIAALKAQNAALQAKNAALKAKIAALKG

P2-AA-1HGe-R = target: T12, P2-AA-1HGe-R; assay: two-hybrid library CCmax; details: mean of both orientations
T12 chain: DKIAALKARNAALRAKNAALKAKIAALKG

P2-AA-1HGe-T = target: T13, P2-AA-1HGe-T; assay: two-hybrid library CCmax; details: mean of both orientations
T13 chain: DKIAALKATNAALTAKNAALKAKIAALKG

P2-AA = target: T14, P2-AA; assay: two-hybrid library CCmax; details: mean of both orientations
T14 chain: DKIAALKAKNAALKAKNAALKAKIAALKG

4H1136-AA = target: T15, 4H1136-AA; assay: two-hybrid library CCmax
T15 chain: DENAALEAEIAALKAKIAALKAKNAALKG

4H1257-AA = target: T16, 4H1257-AA; assay: two-hybrid library CCmax; details: mean of both orientations
T16 chain: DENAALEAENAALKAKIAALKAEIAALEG

4H140-AA = target: T17, 4H140-AA; assay: two-hybrid library CCmax; details: mean of both orientations
T17 chain: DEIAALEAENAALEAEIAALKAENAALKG

4H1802-AA = target: T18, 4H1802-AA; assay: two-hybrid library CCmax; details: mean of both orientations
T18 chain: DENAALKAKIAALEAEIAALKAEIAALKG

4H2600-AA = target: T19, 4H2600-AA; assay: two-hybrid library CCmax; details: mean of both orientations
T19 chain: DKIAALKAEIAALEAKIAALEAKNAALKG

4H2721-AA = target: T20, 4H2721-AA; assay: two-hybrid library CCmax; details: mean of both orientations
T20 chain: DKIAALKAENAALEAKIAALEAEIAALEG

4H2750-AA = target: T21, 4H2750-AA; assay: two-hybrid library CCmax
T21 chain: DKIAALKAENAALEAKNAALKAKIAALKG

4H2898-AA = target: T22, 4H2898-AA; assay: two-hybrid library CCmax; details: mean of both orientations
T22 chain: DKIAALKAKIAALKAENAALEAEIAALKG

4H3020-AA = target: T23, 4H3020-AA; assay: two-hybrid library CCmax; details: mean of both orientations
T23 chain: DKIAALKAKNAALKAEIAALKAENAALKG

4H3365-AA = target: T24, 4H3365-AA; assay: two-hybrid library CCmax; details: mean of both orientations
T24 chain: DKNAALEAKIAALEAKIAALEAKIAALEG

4H355-AA = target: T25, 4H355-AA; assay: two-hybrid library CCmax; details: mean of both orientations
T25 chain: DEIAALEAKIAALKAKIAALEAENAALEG

4H3651-AA = target: T26, 4H3651-AA; assay: two-hybrid library CCmax; details: mean of both orientations
T26 chain: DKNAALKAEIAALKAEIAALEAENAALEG

4H3705-AA = target: T27, 4H3705-AA; assay: two-hybrid library CCmax; details: mean of both orientations
T27 chain: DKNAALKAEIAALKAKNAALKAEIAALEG

4H3782-AA = target: T28, 4H3782-AA; assay: two-hybrid library CCmax; details: mean of both orientations
T28 chain: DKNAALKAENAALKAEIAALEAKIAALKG

4H465-AA = target: T29, 4H465-AA; assay: two-hybrid library CCmax; details: mean of both orientations
T29 chain: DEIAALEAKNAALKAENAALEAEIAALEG

4H486-AA = target: T30, 4H486-AA; assay: two-hybrid library CCmax; details: mean of both orientations
T30 chain: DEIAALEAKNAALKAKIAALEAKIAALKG

4H535-AA = target: T31, 4H535-AA; assay: two-hybrid library CCmax; details: mean of both orientations
T31 chain: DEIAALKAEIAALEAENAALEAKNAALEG

4H58-AA = target: T32, 4H58-AA; assay: two-hybrid library CCmax; details: mean of both orientations
T32 chain: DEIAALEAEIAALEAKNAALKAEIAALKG

4H895-AA = target: T33, 4H895-AA; assay: two-hybrid library CCmax; details: mean of both orientations
T33 chain: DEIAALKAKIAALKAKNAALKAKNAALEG

4H_APH = target: T34, 4H_APH; assay: two-hybrid library CCmax; details: mean of both orientations
T34 chain: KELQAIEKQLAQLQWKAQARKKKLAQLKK

4H_BCR = target: T35, 4H_BCR; assay: two-hybrid library CCmax; details: mean of both orientations
T35 chain: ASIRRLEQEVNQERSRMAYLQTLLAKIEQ

4H_GCN4 = assay: two-hybrid library CCmax
GCN2_T = assay: two-hybrid library CCmax

4H_GCN4, sequence (chain, as listed by the source): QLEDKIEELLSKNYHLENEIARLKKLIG

DKIQQLKQENQELEQEIQELEWKNQELKQ [4H2696-bN] showed an interaction score (4H2696-bN) of -0.134, an interaction score (4H2883-bN) of 1.32 and an interaction score (4H2937-bN) of 0.131. The interaction score (4H2944-bN) was -0.274, the interaction score (4H342-bN) was -0.885 and the interaction score (4H48-bN) was -1.05. The interaction score (4H491-bN) was 0.0322.

In the case of DEIAALEAYNAALYAENAALEAEIAALEG [P1-AA-1HGe-Y], the interaction score (P2-AA-1HGe-A) is reported as 1.65, the interaction score (P2-AA-1HGe-D) is reported as 1.57 and the interaction score (P2-AA-1HGe-M) is reported as 1.67. It also gave an interaction score (P2-AA-1HGe-Q) of 1.96, an interaction score (P2-AA-1HGe-R) of 2.01 and an interaction score (P2-AA-1HGe-T) of 2.08. It also gave an interaction score (P2-AA) of 1.87.

With DENAALEAEIAALKAKIAALKAKNAALKG [4H1136-AA] the interaction score (4H1136-AA) was -0.12, the interaction score (4H1257-AA) was 0.673 and the interaction score (4H140-AA) was -1.41. For the same binder, the interaction score (4H1802-AA) was -1.42, the interaction score (4H2600-AA) was 0.398 and the interaction score (4H2721-AA) was -1.15. For the same binder, the interaction score (4H2750-AA) was -1.46, the interaction score (4H2898-AA) was -0.29 and the interaction score (4H3020-AA) was -1.2. It also gave an interaction score (4H3365-AA) of -1.36, an interaction score (4H355-AA) of 0.718 and an interaction score (4H3651-AA) of 2.2. For the same binder, the interaction score (4H3705-AA) was -1.5, the interaction score (4H3782-AA) was -0.406 and the interaction score (4H465-AA) was -1.44. It also gave an interaction score (4H486-AA) of -0.319, an interaction score (4H535-AA) of 1.79 and an interaction score (4H58-AA) of -0.193. For the same binder, the interaction score (4H895-AA) was -1.31, the interaction score (4H_APH) was -1.64 and the interaction score (4H_BCR) was -1.73. It also gave an interaction score (4H_GCN4) of -1.83 and an interaction score (GCN2_T) of -1.68.

Reference: paper PMC10397247
